# Assay results from patent US20220298218A1 (ANTAG THERAPEUTICS, published 2022).
# Where no end group is shown, it is not given here. [ ]: non-standard residue; d: D form. The star is where a group is joined. C16 diacid = O=C(O)CCCCCCCCCCCCCCC(=O)*; Nle = CCCC[C@H](N)C(=O)O; Aib = CC(C)(N)C(=O)O
# Biological target: T1, human GIP receptor (human, UniProt P48546 22-466)
# T1 sequence (looked up): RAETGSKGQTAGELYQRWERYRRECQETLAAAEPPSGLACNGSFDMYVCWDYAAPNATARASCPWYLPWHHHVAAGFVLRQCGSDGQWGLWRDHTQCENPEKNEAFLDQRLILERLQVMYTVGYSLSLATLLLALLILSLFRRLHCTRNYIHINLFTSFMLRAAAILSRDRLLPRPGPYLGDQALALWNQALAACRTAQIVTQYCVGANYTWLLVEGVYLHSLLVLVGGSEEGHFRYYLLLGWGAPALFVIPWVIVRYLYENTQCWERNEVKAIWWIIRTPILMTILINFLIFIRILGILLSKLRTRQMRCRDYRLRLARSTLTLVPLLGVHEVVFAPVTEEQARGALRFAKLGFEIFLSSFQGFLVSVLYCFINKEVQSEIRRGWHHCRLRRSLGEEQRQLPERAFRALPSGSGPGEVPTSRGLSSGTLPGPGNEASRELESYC
# Experiment: cell-based or functional assay
Binder,cAMP agonism % Emax [%],cAMP antagonism [nM],cAMP antagonism % inhib [%],cAMP antagonism pIC50
EGTFISEYSIAMEKIK(C16 diacid)QQEFVQWLLAQKPSSGAPPPS-OH (N-terminus assumed; SMILES CC[C@H](C)[C@H](NC(=O)[C@H](CO)NC(=O)[C@H](Cc1ccc(O)cc1)NC(=O)[C@H](CCC(=O)O)NC(=O)[C@H](CO)NC(=O)[C@@H](NC(=O)[C@H](Cc1ccccc1)NC(=O)[C@@H](NC(=O)CNC(=O)[C@@H](N)CCC(=O)O)[C@@H](C)O)[C@@H](C)CC)C(=O)N[C@@H](C)C(=O)N[C@@H](CCSC)C(=O)N[C@@H](CCC(=O)O)C(=O)N[C@@H](CCCCN)C(=O)N[C@H](C(=O)N[C@@H](CCCCNC(=O)CCCCCCCCCCCCCCC(=O)O)C(=O)N[C@@H](CCC(N)=O)C(=O)N[C@@H](CCC(N)=O)C(=O)N[C@@H](CCC(=O)O)C(=O)N[C@@H](Cc1ccccc1)C(=O)N[C@H](C(=O)N[C@@H](CCC(N)=O)C(=O)N[C@@H](Cc1c[nH]c2ccccc12)C(=O)N[C@@H](CC(C)C)C(=O)N[C@@H](CC(C)C)C(=O)N[C@@H](C)C(=O)N[C@@H](CCC(N)=O)C(=O)N[C@@H](CCCCN)C(=O)N1CCC[C@H]1C(=O)N[C@@H](CO)C(=O)N[C@@H](CO)C(=O)NCC(=O)N[C@@H](C)C(=O)N1CCC[C@H]1C(=O)N1CCC[C@H]1C(=O)N1CCC[C@H]1C(=O)N[C@@H](CO)C(=O)O)C(C)C)[C@@H](C)CC) [AT613],0,1.47,100,8.8
EGTFISEYSIAMEKIK(C16 diacid)QQDFVEWLLAQKPSSGAPPPS-OH (N-terminus assumed; SMILES CC[C@H](C)[C@H](NC(=O)[C@H](CO)NC(=O)[C@H](Cc1ccc(O)cc1)NC(=O)[C@H](CCC(=O)O)NC(=O)[C@H](CO)NC(=O)[C@@H](NC(=O)[C@H](Cc1ccccc1)NC(=O)[C@@H](NC(=O)CNC(=O)[C@@H](N)CCC(=O)O)[C@@H](C)O)[C@@H](C)CC)C(=O)N[C@@H](C)C(=O)N[C@@H](CCSC)C(=O)N[C@@H](CCC(=O)O)C(=O)N[C@@H](CCCCN)C(=O)N[C@H](C(=O)N[C@@H](CCCCNC(=O)CCCCCCCCCCCCCCC(=O)O)C(=O)N[C@@H](CCC(N)=O)C(=O)N[C@@H](CCC(N)=O)C(=O)N[C@@H](CC(=O)O)C(=O)N[C@@H](Cc1ccccc1)C(=O)N[C@H](C(=O)N[C@@H](CCC(=O)O)C(=O)N[C@@H](Cc1c[nH]c2ccccc12)C(=O)N[C@@H](CC(C)C)C(=O)N[C@@H](CC(C)C)C(=O)N[C@@H](C)C(=O)N[C@@H](CCC(N)=O)C(=O)N[C@@H](CCCCN)C(=O)N1CCC[C@H]1C(=O)N[C@@H](CO)C(=O)N[C@@H](CO)C(=O)NCC(=O)N[C@@H](C)C(=O)N1CCC[C@H]1C(=O)N1CCC[C@H]1C(=O)N1CCC[C@H]1C(=O)N[C@@H](CO)C(=O)O)C(C)C)[C@@H](C)CC) [AT614],0,1.08,100,9
EGTFISDYSIAMDKIK(C16 diacid)QQDFVEWLLAQKPSSGAPPPS-OH (N-terminus assumed; SMILES CC[C@H](C)[C@H](NC(=O)[C@H](CO)NC(=O)[C@H](Cc1ccc(O)cc1)NC(=O)[C@H](CC(=O)O)NC(=O)[C@H](CO)NC(=O)[C@@H](NC(=O)[C@H](Cc1ccccc1)NC(=O)[C@@H](NC(=O)CNC(=O)[C@@H](N)CCC(=O)O)[C@@H](C)O)[C@@H](C)CC)C(=O)N[C@@H](C)C(=O)N[C@@H](CCSC)C(=O)N[C@@H](CC(=O)O)C(=O)N[C@@H](CCCCN)C(=O)N[C@H](C(=O)N[C@@H](CCCCNC(=O)CCCCCCCCCCCCCCC(=O)O)C(=O)N[C@@H](CCC(N)=O)C(=O)N[C@@H](CCC(N)=O)C(=O)N[C@@H](CC(=O)O)C(=O)N[C@@H](Cc1ccccc1)C(=O)N[C@H](C(=O)N[C@@H](CCC(=O)O)C(=O)N[C@@H](Cc1c[nH]c2ccccc12)C(=O)N[C@@H](CC(C)C)C(=O)N[C@@H](CC(C)C)C(=O)N[C@@H](C)C(=O)N[C@@H](CCC(N)=O)C(=O)N[C@@H](CCCCN)C(=O)N1CCC[C@H]1C(=O)N[C@@H](CO)C(=O)N[C@@H](CO)C(=O)NCC(=O)N[C@@H](C)C(=O)N1CCC[C@H]1C(=O)N1CCC[C@H]1C(=O)N1CCC[C@H]1C(=O)N[C@@H](CO)C(=O)O)C(C)C)[C@@H](C)CC) [AT617],0,0.794,91,9.1
EGTFISEYS[Aib]A[Nle]EKIK(C16 diacid)QQDFVEWLLAQKPSSGAPPPS-OH (N-terminus assumed; SMILES CCCC[C@H](NC(=O)[C@H](C)NC(=O)C(C)(C)NC(=O)[C@H](CO)NC(=O)[C@H](Cc1ccc(O)cc1)NC(=O)[C@H](CCC(=O)O)NC(=O)[C@H](CO)NC(=O)[C@@H](NC(=O)[C@H](Cc1ccccc1)NC(=O)[C@@H](NC(=O)CNC(=O)[C@@H](N)CCC(=O)O)[C@@H](C)O)[C@@H](C)CC)C(=O)N[C@@H](CCC(=O)O)C(=O)N[C@@H](CCCCN)C(=O)N[C@H](C(=O)N[C@@H](CCCCNC(=O)CCCCCCCCCCCCCCC(=O)O)C(=O)N[C@@H](CCC(N)=O)C(=O)N[C@@H](CCC(N)=O)C(=O)N[C@@H](CC(=O)O)C(=O)N[C@@H](Cc1ccccc1)C(=O)N[C@H](C(=O)N[C@@H](CCC(=O)O)C(=O)N[C@@H](Cc1c[nH]c2ccccc12)C(=O)N[C@@H](CC(C)C)C(=O)N[C@@H](CC(C)C)C(=O)N[C@@H](C)C(=O)N[C@@H](CCC(N)=O)C(=O)N[C@@H](CCCCN)C(=O)N1CCC[C@H]1C(=O)N[C@@H](CO)C(=O)N[C@@H](CO)C(=O)NCC(=O)N[C@@H](C)C(=O)N1CCC[C@H]1C(=O)N1CCC[C@H]1C(=O)N1CCC[C@H]1C(=O)N[C@@H](CO)C(=O)O)C(C)C)[C@@H](C)CC) [AT615],0,7.94,97,8.1
EGTFISEYSI[Aib]MEKIK(C16 diacid)QQDFVEWLLAQKPSSGAPPPS-OH (N-terminus assumed; SMILES CC[C@H](C)[C@H](NC(=O)[C@H](CCCCN)NC(=O)[C@H](CCC(=O)O)NC(=O)[C@H](CCSC)NC(=O)C(C)(C)NC(=O)[C@@H](NC(=O)[C@H](CO)NC(=O)[C@H](Cc1ccc(O)cc1)NC(=O)[C@H](CCC(=O)O)NC(=O)[C@H](CO)NC(=O)[C@@H](NC(=O)[C@H](Cc1ccccc1)NC(=O)[C@@H](NC(=O)CNC(=O)[C@@H](N)CCC(=O)O)[C@@H](C)O)[C@@H](C)CC)[C@@H](C)CC)C(=O)N[C@@H](CCCCNC(=O)CCCCCCCCCCCCCCC(=O)O)C(=O)N[C@@H](CCC(N)=O)C(=O)N[C@@H](CCC(N)=O)C(=O)N[C@@H](CC(=O)O)C(=O)N[C@@H](Cc1ccccc1)C(=O)N[C@H](C(=O)N[C@@H](CCC(=O)O)C(=O)N[C@@H](Cc1c[nH]c2ccccc12)C(=O)N[C@@H](CC(C)C)C(=O)N[C@@H](CC(C)C)C(=O)N[C@@H](C)C(=O)N[C@@H](CCC(N)=O)C(=O)N[C@@H](CCCCN)C(=O)N1CCC[C@H]1C(=O)N[C@@H](CO)C(=O)N[C@@H](CO)C(=O)NCC(=O)N[C@@H](C)C(=O)N1CCC[C@H]1C(=O)N1CCC[C@H]1C(=O)N1CCC[C@H]1C(=O)N[C@@H](CO)C(=O)O)C(C)C) [AT616],0,0.473,100,9.3
